The source of these data is patent US20150045540A1 (published 2015).

The target in assay [1] is T1, Placenta Growth Factor (PlGF), human (human, UniProt P49763 21-149).
T1 chain: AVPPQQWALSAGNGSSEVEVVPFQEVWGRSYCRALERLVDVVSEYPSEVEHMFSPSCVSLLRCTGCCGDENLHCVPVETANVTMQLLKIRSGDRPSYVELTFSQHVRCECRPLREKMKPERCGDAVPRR
Put plainly: ELISA.

Assay [2] concerns the target Hepatocyte Growth Factor (HGF), human (human, UniProt P14210 32-728). Put plainly: ELISA.
Another assay has as its target ErbB3 (UniProt P21860 20-643). Nature of the assay: binding.
For assay [3], the target named is T2, VEGF (Example 4) (UniProt P15692 27-191).
T2 chain: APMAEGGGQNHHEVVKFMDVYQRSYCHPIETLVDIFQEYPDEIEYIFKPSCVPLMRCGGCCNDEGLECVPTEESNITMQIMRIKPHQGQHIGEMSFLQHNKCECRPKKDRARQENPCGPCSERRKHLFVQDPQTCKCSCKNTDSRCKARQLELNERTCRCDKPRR
Nature of the assay: binding.

For assay [4], the target named is T2, VEGF (Example 4). Put plainly: VEGF-KDR inhibition.

Hepatocyte Growth Factor (HGF), human, sequence (P14210 32-728): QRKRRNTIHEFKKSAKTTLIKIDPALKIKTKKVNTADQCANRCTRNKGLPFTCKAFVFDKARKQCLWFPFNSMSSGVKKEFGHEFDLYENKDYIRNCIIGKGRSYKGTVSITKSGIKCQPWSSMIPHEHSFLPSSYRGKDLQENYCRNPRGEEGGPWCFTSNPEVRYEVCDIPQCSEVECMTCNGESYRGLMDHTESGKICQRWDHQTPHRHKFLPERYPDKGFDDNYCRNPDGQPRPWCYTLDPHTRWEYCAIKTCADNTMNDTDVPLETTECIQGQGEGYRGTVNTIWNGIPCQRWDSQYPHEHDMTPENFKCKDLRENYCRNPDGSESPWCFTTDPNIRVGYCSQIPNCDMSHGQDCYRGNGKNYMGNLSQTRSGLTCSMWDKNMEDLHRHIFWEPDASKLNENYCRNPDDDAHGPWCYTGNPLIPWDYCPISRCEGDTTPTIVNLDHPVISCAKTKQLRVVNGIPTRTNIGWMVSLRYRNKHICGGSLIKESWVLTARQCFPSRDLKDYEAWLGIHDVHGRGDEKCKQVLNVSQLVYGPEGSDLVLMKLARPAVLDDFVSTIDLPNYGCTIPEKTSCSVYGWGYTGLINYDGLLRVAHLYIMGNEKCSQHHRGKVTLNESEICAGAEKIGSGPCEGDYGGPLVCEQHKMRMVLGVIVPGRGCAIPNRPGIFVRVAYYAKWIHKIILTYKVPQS
ErbB3, sequence (P21860 20-643): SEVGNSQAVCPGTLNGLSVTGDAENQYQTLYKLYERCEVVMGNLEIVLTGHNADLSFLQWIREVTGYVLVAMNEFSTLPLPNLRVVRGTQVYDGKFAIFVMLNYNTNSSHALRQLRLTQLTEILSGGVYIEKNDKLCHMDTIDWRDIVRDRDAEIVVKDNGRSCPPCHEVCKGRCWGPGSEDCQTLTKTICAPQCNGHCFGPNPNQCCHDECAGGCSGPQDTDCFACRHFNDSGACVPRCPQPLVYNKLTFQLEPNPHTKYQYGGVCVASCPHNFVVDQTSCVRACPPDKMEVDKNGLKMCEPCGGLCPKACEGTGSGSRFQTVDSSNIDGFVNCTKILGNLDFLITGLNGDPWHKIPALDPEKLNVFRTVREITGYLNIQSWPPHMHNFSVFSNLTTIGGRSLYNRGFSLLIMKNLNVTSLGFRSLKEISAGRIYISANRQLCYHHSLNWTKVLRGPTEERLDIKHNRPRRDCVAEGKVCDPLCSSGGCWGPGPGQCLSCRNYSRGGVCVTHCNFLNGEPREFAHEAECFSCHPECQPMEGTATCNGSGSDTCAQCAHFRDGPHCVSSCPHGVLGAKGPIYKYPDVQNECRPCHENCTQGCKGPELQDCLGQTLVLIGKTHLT

B1: HC 6/SLC 7 (antibody)
chain 1: GQGTLVTVSSASTKGPQPVLHQPPAMSSALGTTIRLTCTLRNDHDIGVYSVYWYQQRPGHPPRFLLRYFSQSDKSQGPQVPPRFSGSKDVARNRGYLSISELQPEDEAMYYCAMGARSRCWPRGFQSKHNSVTHVFGSGTQLTVLSQPKATPSVTLFPPSSEELQANKATLVCLMNDFYPGILTVTWKADGTPITQGVEMTTPSKQSNNKYAASSYLSLTPEQWRSRRSYSCQVMHEGSTVEKTVAPAECS
chain 2: MSWAPVLLMLFVYCTGCGPQPVLHQPPAMSSALGTTIRLTCTLRNDHDIGVYSVYWYQQRPGHPPRFLLRYFSQSDKSQGPQVPPRFSGSKDVARNRGYLSISVTHVFGSGTQLTVLSQPKATPQVQLVQ
Take B1: the 50% effective concentration (EC50) in assay [1] came out at 0.083 nM; in assay [2], 0.056 nM.

B2: HC 9/SLC 3 (antibody)
chain 1: GQGTLVTVSSASTKGPSVFQPVLHQPPAMSSALGTTIRLTCTLRNDHDIGVYSVYWYQQRPGHPPRFLLRYFSQSDKSQGPQVPPRFSGSKDVARNRGYLSISELQPEDEAMYYCAMGARSRCWPRGFQSKHNSVTHVFGSGTQLTVLSQPKATPSVTLFPPSSEELQANKATLVCLMNDFYPGILTVTWKADGTPITQGVEMTTPSKQSNNKYAASSYLSLTPEQWRSRRSYSCQVMHEGSTVEKTVAPAECS
chain 2: MSWAPVLLMLFVYCTGCGPQPVLHQPPAMSSALGTTIRLTCTLRNDHDIGVYSVYWYQQRPGHPPRFLLRYFSQSDKSQGPQVPPRFSGSKDVARNRGYLSISVTHVFGSGTQLTVLSQPQVQLVQ
On to B2, for which the EC50 is 0.136 nM in assay [1] and 0.078 nM in assay [2].

B3: HC 9/SLC 4 (antibody)
chain 1: GQGTLVTVSSASTKGPSVFQPVLHQPPAMSSALGTTIRLTCTLRNDHDIGVYSVYWYQQRPGHPPRFLLRYFSQSDKSQGPQVPPRFSGSKDVARNRGYLSISELQPEDEAMYYCAMGARSRCWPRGFQSKHNSVTHVFGSGTQLTVLSQPKATPSVTLFPPSSEELQANKATLVCLMNDFYPGILTVTWKADGTPITQGVEMTTPSKQSNNKYAASSYLSLTPEQWRSRRSYSCQVMHEGSTVEKTVAPAECS
chain 2: MSWAPVLLMLFVYCTGCGPQPVLHQPPAMSSALGTTIRLTCTLRNDHDIGVYSVYWYQQRPGHPPRFLLRYFSQSDKSQGPQVPPRFSGSKDVARNRGYLSISVTHVFGSGTQLTVLSQPKQVQLVQ
As to B3, the EC50 in assay [1] was determined as 0.164 nM; in assay [2], 0.063 nM.

B4: HC 4/SLC 3 (antibody)
chain 1: GQGTLVTVSSASTKQPVLHQPPAMSSALGTTIRLTCTLRNDHDIGVYSVYWYQQRPGHPPRFLLRYFSQSDKSQGPQVPPRFSGSKDVARNRGYLSISELQPEDEAMYYCAMGARSRCWPRGFQSKHNSVTHVFGSGTQLTVLSQPKATPSVTLFPPSSEELQANKATLVCLMNDFYPGILTVTWKADGTPITQGVEMTTPSKQSNNKYAASSYLSLTPEQWRSRRSYSCQVMHEGSTVEKTVAPAECS
chain 2: MSWAPVLLMLFVYCTGCGPQPVLHQPPAMSSALGTTIRLTCTLRNDHDIGVYSVYWYQQRPGHPPRFLLRYFSQSDKSQGPQVPPRFSGSKDVARNRGYLSISVTHVFGSGTQLTVLSQPQVQLVQ
Take B4: the half-maximal effective concentration (EC50) turned out to be 0.147 nM in assay [1] and 0.06 nM in assay [2].

B5: HC 9/SLC 5 (antibody)
chain 1: GQGTLVTVSSASTKGPSVFQPVLHQPPAMSSALGTTIRLTCTLRNDHDIGVYSVYWYQQRPGHPPRFLLRYFSQSDKSQGPQVPPRFSGSKDVARNRGYLSISELQPEDEAMYYCAMGARSRCWPRGFQSKHNSVTHVFGSGTQLTVLSQPKATPSVTLFPPSSEELQANKATLVCLMNDFYPGILTVTWKADGTPITQGVEMTTPSKQSNNKYAASSYLSLTPEQWRSRRSYSCQVMHEGSTVEKTVAPAECS
chain 2: MSWAPVLLMLFVYCTGCGPQPVLHQPPAMSSALGTTIRLTCTLRNDHDIGVYSVYWYQQRPGHPPRFLLRYFSQSDKSQGPQVPPRFSGSKDVARNRGYLSISVTHVFGSGTQLTVLSQPKAQVQLVQ
On to B5, for which the EC50 in assay [1] came out at 0.172 nM; in assay [2] it was 0.065 nM.

B6: HC 8/SLC 15 (antibody)
chain 1: GQGTLVTVSSASTKGPSVQPVLHQPPAMSSALGTTIRLTCTLRNDHDIGVYSVYWYQQRPGHPPRFLLRYFSQSDKSQGPQVPPRFSGSKDVARNRGYLSISELQPEDEAMYYCAMGARSRCWPRGFQSKHNSVTHVFGSGTQLTVLSQPKATPSVTLFPPSSEELQANKATLVCLMNDFYPGILTVTWKADGTPITQGVEMTTPSKQSNNKYAASSYLSLTPEQWRSRRSYSCQVMHEGSTVEKTVAPAECS
chain 2: MSWAPVLLMLFVYCTGCGPQPVLHQPPAMSSALGTTIRLTCTLRNDHDIGVYSVYWYQQRPGHPPRFLLRYFSQSDKSQGPQVPPRFSGSKDVARNRGYLSISVTHVFGSGTQLTVLSQPKATPSVTGGGGSQVQLVQ
As for B6, the concentration giving a half-maximal response (EC50) in assay [1] was 0.05 nM; in assay [2] it was 0.048 nM.

B7: HC 7/SLC 2 (antibody)
chain 1: GQGTLVTVSSASTKGPSQPVLHQPPAMSSALGTTIRLTCTLRNDHDIGVYSVYWYQQRPGHPPRFLLRYFSQSDKSQGPQVPPRFSGSKDVARNRGYLSISELQPEDEAMYYCAMGARSRCWPRGFQSKHNSVTHVFGSGTQLTVLSQPKATPSVTLFPPSSEELQANKATLVCLMNDFYPGILTVTWKADGTPITQGVEMTTPSKQSNNKYAASSYLSLTPEQWRSRRSYSCQVMHEGSTVEKTVAPAECS
chain 2: MSWAPVLLMLFVYCTGCGPQPVLHQPPAMSSALGTTIRLTCTLRNDHDIGVYSVYWYQQRPGHPPRFLLRYFSQSDKSQGPQVPPRFSGSKDVARNRGYLSISVTHVFGSGTQLTVLSQQVQLVQ
Turning to B7, the 50% effective concentration (EC50) worked out at 0.2 nM in assay [1] and 0.057 nM in assay [2].

B8: HC 4/SLC 8 (antibody)
chain 1: GQGTLVTVSSASTKQPVLHQPPAMSSALGTTIRLTCTLRNDHDIGVYSVYWYQQRPGHPPRFLLRYFSQSDKSQGPQVPPRFSGSKDVARNRGYLSISELQPEDEAMYYCAMGARSRCWPRGFQSKHNSVTHVFGSGTQLTVLSQPKATPSVTLFPPSSEELQANKATLVCLMNDFYPGILTVTWKADGTPITQGVEMTTPSKQSNNKYAASSYLSLTPEQWRSRRSYSCQVMHEGSTVEKTVAPAECS
chain 2: MSWAPVLLMLFVYCTGCGPQPVLHQPPAMSSALGTTIRLTCTLRNDHDIGVYSVYWYQQRPGHPPRFLLRYFSQSDKSQGPQVPPRFSGSKDVARNRGYLSISVTHVFGSGTQLTVLSQPKATPSQVQLVQ
As for B8, the concentration for a half-maximal effect (EC50) worked out at 0.18 nM in assay [1] and 0.061 nM in assay [2].

B9: 2 (antibody, V domains shown)
V domain 1: FQPVLHQPPAMSSALGTTIRLTCTLRNDHDIGVYSVYWYQQRPGHPPRFLLRYFSQSDKSQGPQVPPRFSGSKDVARNRGYLSISELQPEDEAMYYCAMGARSSVTHVFGSGTQLTVLS
V domain 2: QPVLHQPPAMSSALGTTIRLTCTLRNDHDIGVYSVYWYQQRPGHPPRFLLRYFSQSDKSQGPQVPPRFSGSKDVARNRGYLSISELQPEDEAMYYCAMGARSSVTHVFGSGTQLTVLS
As to B9, the EC50 with ErbB3 amounted to 0.051 nM; with VEGF (Example 4) [3], 0.016 nM. This molecule also had an IC50 in the assay with VEGF (Example 4) [4] of 0.391 nM.

B10: 5 (antibody, V domains shown)
V domain 1: PQPVLHQPPAMSSALGTTIRLTCTLRNDHDIGVYSVYWYQQRPGHPPRFLLRYFSQSDKSQGPQVPPRFSGSKDVARNRGYLSISELQPEDEAMYYCAMGARSSVTHVFGSGTQLTVLS
V domain 2: QPVLHQPPAMSSALGTTIRLTCTLRNDHDIGVYSVYWYQQRPGHPPRFLLRYFSQSDKSQGPQVPPRFSGSKDVARNRGYLSISELQPEDEAMYYCAMGARSSVTHVFGSGTQLTVLS
Regarding B10, the figures for the concentration giving a half-maximal response (EC50) with ErbB3 and in the assay with VEGF (Example 4) [3] were 0.058 nM and 0.012 nM, respectively. The molecule further had a concentration for half-maximal inhibition (IC50) with VEGF (Example 4) [4] of 0.409 nM.
